Source: the supplement of paper PMC9170038

System: K4 kissing-loop RNA reporter
Test: apparent KD of K4 kissing-loop reporter; higher = weaker reporter binding
Settings: Eterna round: R107; input ligand: none
Protocol: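 RNA-MaP round R107: designed RNA switches with theophylline, tryptophan, arginine or FMN aptamers are transcribed on-chip within common flanks. They are titrated with a labelled K4 kissing-loop RNA reporter in RNA-MaP buffer (100 mM Tris pH 7.5, 80 mM KCl, 4 mM MgCl2), without ligand or with the indicated ligand. Median apparent KD per design.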
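Also: bound reporter read as fluorescence of individual clusters on recovered sequencing chips by microscopy, with normalized cluster intensities fitted with a binding model.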

Sequence	apparent KD of K4 kissing-loop reporter [nM]
GGUAGCAUGGCGGCCGCCACUUCAUAUGGAGUGAUGUUCCAGCAUCUUAUAAGACUGAGGUGAGGAAGGACCGGGCCAUGCUACC	577
AUUAUAUAGGCGGCCGCCACUAGUGAUGUUAGUGACUUUAUGAAAACAUAAAGAAUAAAAUAAUAUAGGACCGGGCCAUAAUAUU [AstrosExTryB#5]	450
UAGAGUCACAAGACAGUGAUGUUGUCUACUGAGGAUAUCAUGAAUAUGAGAAGGCAGUGUUGGAGGUCUCUAACAACAGACUCUG [FMN A SS t3]	389
UUUCUACCGGGAAGGAGCGUGAAUGAUAAUGGAUAUAGUGAUGUUAUAUAUACGAACGAAUCGCAGGUAGGUCGCCCGGAUGACU [SSArgB.T]	724
AAUAUAGUGAUGUUAUAUAAGAAGGAGUUACGAGGACCGGUACGGCCGCCACUCGAAACGAGUGAGGGCUUGGGAGAUUGGGCCC [SSTryptA.I]	444
GCCGUAGUUGGAAGGAGCGUGAAUGGCCUCUAUCCAAAGUGAUGUUUUGUUGAAGACUGUUCACAGGUAGGUCGCCAACUACGGC [#09 K4 Arginine B Same State]	133
AAUAAUGAUGUUUAGGAAAGUAAAAUGGAAGGAGCGUGCGAAAGCACAGGUAGGUCGCCAGUGAUGUUGGAACCUGAGCAUCAAA [#SwitchBubble 19 #K4Late]	836
UGUCAUUGGUCGGCCGCCACUCCAUAAAGAGUGAUGUUCUGAAAGACGGAUCGAAAGAUCUGUCGGAGGACCGGGACCGAUGACU [FiskerMod 3 - Jieux - Same State - Tryptophan B]	1540
GGACCACCAGUGAUGUUGGAGAUAAACUCCAAGGAUAUGACGAAAGUCAGAAGGUGGUAAUAAGACGUCAAAGACGUCAGGUCCA [FmnA 20 #SwitchBubble #K4Early]	187
UAUGUACACGGGUAGUUGUACAUCGAGGAAGGAGCGUGCGCAGGCACAGGUAGGUCGCCUCAGCGCACGAGUGAUGUUCGUGGGC [Xexegeus]	257
UGGCGAGUGAUGUUCGUUGUUGUAGUGUGCCGAGGACCGGUACGGCCGCCACUCGGGUUGGUUGUUGUUGUUGUUGUUGUUGUUG [whbob_SS_tryp_A]	112
UUCUUGAUGGAAACAUCGAGGAUUACUGAUACCAGUAUCGAUAGAUACCCUUGGCAGCAGAAUCAGUAAUCACGAGUGAUGUUCG [Ex Theophylline A K4 6]	841
UGUAUGGACUGAAGGAGCGGUAGAUAAACUGAGUGAUGUUCGGCAAAUAAAGGCGCAAGCCACCAGGUAGGUCGCAGUCCAUACU [KL-SSArg B1]	235
UGGAGUUGACGAAAAGUCAACUCCUGAGAAGGAGCGGACGAAAGUCCAGGUAGGUCGCUCACUACCAGUGAUGUUGGUACUAAAA	141
CGUGGUGCUCGCCAGCUGUGCGAGCGGUGGGAGGAUAUGUCGCGAGACAGAAGGCCCAGUGAUGUUGGGCAGGCUCGUAGAUCAA [Orbemaed]	121
CAGAACUUGUAUACAGGGUAUGUAAGAGAUACCAGUCAAAUUAAAGACCCUUGGCAGCUCAGGCGAGUGAUGUUCGCAGGCUAAC [Exclusion Theophylline A GF 18]	115
GACUCAUGUAGAAGGAGCGUCAGAAGCUACAGACAUGAGUGAUGUUCAUGUUAGUUGAUUUGACAGGUAGGUCGCUACAGCAGGA [KL-SSArg B15 #analogue]	247
UGGAGUUGACGAAAAGUCAACUCCUGAGAUACCAGUGACGAAAGUCACCCUUGGCAGCUCACUGCCAGUGAUGUUGGUUUAUAAA [#OpenEnded 2]	134
UGAUUUAACUGAAGGAGCGGCAAGAGAGAAGGAAAUAUAGUGAUGUUAUAUAAGAGAGAGAGCCAGGUAGGUCGCAGAGGGAGGA [ExArgB.E]	173
AGGUCACUACUACAGUGAUGUUGUGGAGAGCAGGAUAUGCAGAAAUGCAGAAGGGCUCGCUCUCAGUGACCGAAUGAAACAUUCA [Omei KL FMN A SS A v8]	712
CAAACGGGUUGGCUUGGAGACUGCAGACGCAAGGAUAUCGCGAAGACGAGAAGGUGCGGGCCUGGUAGUGAUGUUACAGUUUGGU [theeternabot_sameState_KL_FMN_A_21]	395
AAGCAGUCCCUCGAAGCCAUCGAAGAUGGGCGAGGACCGGUACGGCCGCCACUCGGAGUGAUGUUCCGAAGACUGCAAAAUAAAA [MatMod 3 - Jieux - Exclusion - Tryptophan A]	192

Same assay, conditions: Eterna round: R107; input ligand: theophylline 20 uM

Sequence	apparent KD of K4 kissing-loop reporter [nM]
UGUGGAGAAUAUGAUACCAGCAGUGAGAGAGAGGAAGUAUAGUGAUGUUAUAUGAGAGAAUGCCCUUGGCAGCAUAAGAAGAAGG [SSTheophylB.D]	277
UCUUGCGGCGCAGGAUAUCCGUCUGUCUCCUGCGUCAUUCUGCAGUGAUGUUGCAGGUGACGGAUAGGAGAAGGGCGAACGUACA [Diinonorce]	117
AAGUCAUAGGCAGGAUAUGCAUAGUAAUAAGGCAAUAUCUACGUAUAGAGUGAUGUUUUGUACCAGGCAGAAGGGCUACAUCAGU [FMN B Excl V9 (+4A/C)]	554
AAUAGGGAGUGAUGUUCCCUCACUUAUGAUACCAGUGCCAUCGGACACCCUUGGCAGCAUACGGGCAGUGAUGUUGUUCUUGGAA [Exclusion Theophylline A GF 25]	155
GAAUAAUAUGUACCAGUGAUGUUGGUACAACGAGGACCGGUACGGCCGCCACUCGGAUACGAGUGGAUACAUCACUGACCAUUCG [(H1)-(H2)-(Trp1)-(Trp2)-(T)'-(H)'-(T)''_Design9]	413
GCGCGUCAUGUCAGCGGUGACACUGUCGAUACCAGCGCCGGAAGGCGCCCUUGGCAGCGACGUGCUGGAGUGAUGUUCCAGCGUG [#2 Exclusion - Theophylline A Attempt #26 (HarryS)]	206
CCCUCACGAGUGAUGUUCGUAGGGUACAGUCAGGAUAUCAUGCGGUUGAGAAGGGACAGAGAAGGCGGCGACGGGUUGCUUAUCU [Atenus]	200
GAUUCAGUGAUGUUGGAAGGCGAGCGGGAUACCAGCCAAGACUCAGGCCCUUGGCAGCCCACAUAUCCCACGUAGAUAGUAGCUC [Same State - Theophylline A (Freestyle 13)]	134
CGGUACGUCGCAGGAUAUGUAAAUGUAAGUGAUGUUUACAUACCAUGCUGGCGAAAGCCAGCAUGGACAGAAGGGCGACGUACCG	328
AAUUUGUAUUUAUUCUUUAAAUGUUCAGAAGGAGCGUGAAUUAUCACAGGUAGGUCGCUGAGCUAGUGAUGUUAGCUAUACACUA [#01 K4 Arginine A Exclusion]	181
GUACGCUCCCGAGUGAUGUUCGGUAAUCGCUAGGAUAUCGCUUUUGCGAGAAGGAGCGGAAUGAGGAAACUCGUUCUGAGUGUAC [FMN A 26]	386
CCAAGGUGCUUCUGUUCAGUGAUGUUGGUACGAGGACCGGUACGGCCGCCACUCGCCGUACAAUCGCUAGUUAAUCAUUGGCAAG [theeternabot_exclusion_KL_Trp_A_40]	441
AGUGGACGUGUCUAGAGUGAUGUUCCGGAUACCAGACACGAAAGUGUCCCUUGGCAGCCGGAGUGAUGUUCUGGCGUUCACUAAA [Omei KL Theo A Exc B v6]	459
AGACUACCACACUGUCAAUAGACAGUGUACUAGGAUAUGCUGAUAAGCAGAAGGAGUGAUGUUCCUCGGUAGUCAAUAAAAUAAU [FmnAX 13 U28+C67]	350
CCUAUCUCAUACGAUACCAGUCUAUUAAAACGAGUGAUGUUCGAAUAUUUGCCAUAUAAUGACCCUUGGCAGCGUAUGGGAUAGG [Ex Theophylline B K4 9]	230
UGUGUACCGGGAAGGAGCGUGAAUGAGAAUGGAUAUAGUGAUGUUAUAUAUACGAACGAAUCGCAGGUAGGUCGCCCGGAUCCCU [SSArgB.Y]	444

Sequence	apparent KD of K4 kissing-loop reporter [nM]
AGUACGGACGCGGCCGCCACUCAGAAGAAGACGGUAGUGAUGUUACUGAUGGUGAGAACAAUAAAGAGGACCGGGUGUCGUGCAA [#06 K4 Tryptophan B Same State]	370
UGUUAUGUAUCAGGAUAUUAGUGAUGUUUGUUUAUGUUAGUGAUGUUGAUAUUUGUUUUAUGUAUUUAAGAAGGGAUUGAGAAGU [ffcfxmullin]	30.2
GAUUCAGUGAUGUUGGAAGGCGAGCGGGAUACCAGCCAAGACUCAGGCCCUUGGCAGCCCACAUAUCCCAGGUAGAUAGUAGCUC [Same State - Theophylline A (Freestyle 12)]	146
UGUAUGGACUGAAGGAGCGGUAUAUAAACUGAGUGAUGUUCGGCAGAUAAAGGCGCAAGCCACCAGGUAGGUCGCAGUCCAUACU [KL-SSArg B2]	390
AUUUUUUUAUCAGGAUAUUAGUGAUGUUUGUUUUUGUUAGUGAUGUUGAUAUUUGUUUUAUGUAUUUAAGAAGGGAUUGAGAUGU [sfsmullin]	19.9
GGUAGCAUGGCGGCCGCCACUUCAUAUGGAGUGAUGUUCCAGCAUCUUAUAAGACUGAGGUGAGGAAGGACCGGGCCAUGCUACC	615
AUUAUAUAGGCGGCCGCCACUAGUGAUGUUAGUGACUUUAUGAAAACAUAAAGAAUAAAAUAAUAUAGGACCGGGCCAUAAUAUU [AstrosExTryB#5]	427
UAGAGUCACAAGACAGUGAUGUUGUCUACUGAGGAUAUCAUGAAUAUGAGAAGGCAGUGUUGGAGGUCUCUAACAACAGACUCUG [FMN A SS t3]	370
UUUCUACCGGGAAGGAGCGUGAAUGAUAAUGGAUAUAGUGAUGUUAUAUAUACGAACGAAUCGCAGGUAGGUCGCCCGGAUGACU [SSArgB.T]	550
AAUAUAGUGAUGUUAUAUAAGAAGGAGUUACGAGGACCGGUACGGCCGCCACUCGAAACGAGUGAGGGCUUGGGAGAUUGGGCCC [SSTryptA.I]	377
GCCGUAGUUGGAAGGAGCGUGAAUGGCCUCUAUCCAAAGUGAUGUUUUGUUGAAGACUGUUCACAGGUAGGUCGCCAACUACGGC [#09 K4 Arginine B Same State]	134
AAUAAUGAUGUUUAGGAAAGUAAAAUGGAAGGAGCGUGCGAAAGCACAGGUAGGUCGCCAGUGAUGUUGGAACCUGAGCAUCAAA [#SwitchBubble 19 #K4Late]	925
UGUCAUUGGUCGGCCGCCACUCCAUAAAGAGUGAUGUUCUGAAAGACGGAUCGAAAGAUCUGUCGGAGGACCGGGACCGAUGACU [FiskerMod 3 - Jieux - Same State - Tryptophan B]	896
GGACCACCAGUGAUGUUGGAGAUAAACUCCAAGGAUAUGACGAAAGUCAGAAGGUGGUAAUAAGACGUCAAAGACGUCAGGUCCA [FmnA 20 #SwitchBubble #K4Early]	209
UAUGUACACGGGUAGUUGUACAUCGAGGAAGGAGCGUGCGCAGGCACAGGUAGGUCGCCUCAGCGCACGAGUGAUGUUCGUGGGC [Xexegeus]	216
UGGCGAGUGAUGUUCGUUGUUGUAGUGUGCCGAGGACCGGUACGGCCGCCACUCGGGUUGGUUGUUGUUGUUGUUGUUGUUGUUG [whbob_SS_tryp_A]	119
